According to PMC4255305:

Target: (R)-selective amine : pyruvate transaminase from Nectria haematococca, His-tagged (construct pQR1023) (Nectria haematococca)
Assay: SEC; Superdex 200 HiLoad 16/60 gel filtration, 50 mM Tris/HCl, 0.1 M NaCl pH 7.5, 1.0 mL/min; dimer from the elution volume

**Q.** “(R)-selective amine : pyruvate transaminase from Nectria haematococca, His-tagged (construct pQR1023) (enzyme)” was tested. Which stoichiometry N did it give?
**A.** The stoichiometry N was 2.
